Usually Km stands for the concentration of substrate that gives half-maximal velocity. A word on the kcat: it is the maximal rate divided by the concentration of active sites.

The source of these data is US20150150157A1, “PREPHENATE DEHYDROGENASES AND AROGENATE DEHYDROGENASES THAT ARE INSENSITIVE TO EFFECTOR FEEDBACK INHIBITION AND METHODS OF USING THE SAME” (Wisconsin Alumni Research Foundation, priority 2013, published 2015).

Entries after “also recorded” stand apart in the source; their conditions may differ. Where two headings read alike, the source gives them in different places.

For data set [1] the following is noted: literature values; read-out: Km for prephenate of other plant and microbial PDHs; cited from earlier work.
Data set [2] can be described thus: Inhibition analysis: L-Tyr sensitivity of PDH activity of purified recombinant GmPDH1 and MtPDH1. The data set is classed as biochemical. The settings on record: for effect of L-Tyr on PDH activity at low (non-saturating) prephenate concentrations: 1 mM L-Tyr, prephenate 15 mM to 59 μM; for effect of L-Tyr on PDH activity at low (non-saturating) prephenate concentrations / PDH activity: 1 mM NADP+; for PDH activity: purified recombinant enzyme, 1 mM prephenate; for inhibition of PDH activity by L-Tyr: up to 10 mM of L-Tyr. The procedure:
(§1) ADH and PDH reactions using GmPDH1, Glyma11g35760, MtPDH1 and AtADH2 (FIG. 5A) contained 200 mM HEPES (pH 7.3), 50 mM KCl, 10% ethylene glycol, 1 mN4 NADP^+ and 1 mM substrate (L-arogenate or prephenate, respectively). Reactions were started by addition of enzyme and incubated at 37° C. for 15 min in the presence of increasing concentrations of effectors: L-Tyr FIG. 5A), L-Phe, L-Trp and HPP. Tyr was dissolved in basic conditions (0.025 N NaOH) to dissolve at high concentrations (up to 10 mM), though 200 mM HEPES maintained the final reaction pH at 7.6. Tyr sensitivity of purified recombinant GmPDH1 and MtPDH1 was also tested at prephenate concentrations ranging from […] to 59 μM, below the K values for GmPDH1 and MtPDH1, while keeping the L-Tyr concentration constant at 1 mM (FIG. 13). Enzyme activity was measured for the production of reduced cofactor (NADPH) at 340 nm using a spectrophotometer, except for crude soybean extracts, which were analyzed by HPLC after 45 min incubation and reduction to HPLA as described above.

The nature of data set [3]: Kinetic analysis of purified recombinant enzymes, PDH activity. The data set is classed as biochemical. The procedure: (§2) Kinetic parameters of purified recombinant GmPDH1 and MtPDH1 for ADH activity (Table 3) were determined from assays conducted using varying L-arogenate concentrations (39 μM to 5 mM). Assays were incubated for 15 min with 0.5 mM NADP^+, by placing on ice and quantified by measuring production of NADPH by absorbance at 340 nm. Kinetic parameters of purified recombinant GmPDH1 and MtPDH1 for PDH activity (Table 3) were determined from assays conducted using varying prephenate concentrations (29 μM to 3.5 mM). Assays with 0.5 mM NADP^+ were monitored continuously at 340 nm using a microplate reader (Tecan GENios, Zurich, Switzerland) for 7 min. Kinetic parameters were determined using hyperbolic regression analysis in Hyper (http://homepage.ntlworld.com/john.eastetby/software.html). Enzyme assays were carried out at a protein concentration and reaction time that were in the linear range and proportional to reaction velocity. The final enzyme concentrations of the purified recombinant GmPDH1 and MtPDH1 were 0.9 μg/ml and 0.7 μg/ml for PDH activity and 3.0 μg/ml and 1.4 μg/ml for ADH activity, respectively.

The nature of data set [4]: Inhibition analysis: effect of HPP on PDH activity of purified recombinant enzymes. It is filed as biochemical. The settings on record: purified recombinant enzyme. The protocol: as §1
A short description of data set [5]: Inhibition analysis: effect of L-Trp on PDH activity of purified recombinant enzymes. The data set is classed as biochemical. The conditions noted are these: purified recombinant enzyme. The procedure:
as §1

A short description of data set [6]: Qualitative HPLC detection of PDH activity in E. coli cell lysates expressing candidate enzymes. The settings on record: 2 mM prephenate, saturating conditions. The data set is classed as biochemical. The protocol:
ADH and PDH reactions contained 25 mM HEPES (pH 7.5), 50 mM KCl, 10% ethylene glycol, 1 mM NADP (or NAD^+), 2 mM substrate (L-arogenate or prephenate, respectively) unless otherwise noted. Arogenate was prepared by enzymatic conversion from prephenate (Sigma-Aldrich), as previously reported. Reactions were started by addition of enzyme from various sources and incubated at 37′ C. for a given amount of time, as noted below,
HPLC-based methods were used to directly detect the final products of ADH and PDH assays, Tyr and HPP, respectively from crude E. coli extracts (FIG. 3B and FIG. 3C) and crude plant extracts (FIG. 2A and FIG. 6). For HPLC detection of PDH activity, reactions were incubated for 45 min and terminated by addition of NaBH4, which converts the reaction product HPP (which produced multiple peaks; FIG. 6) into hydroxyphenyllactic acid (HPLA), followed by neutralization with 100 μl of 6 N HCl. The conversion and recovery rate was 80±1.5% s.d. which was taken into account for the calculation of specific activity from crude plant extracts (FIG. 2C). HPLA was detected as a single peak (FIG. 2A) after being separated by HPLC (Agilent 1260, Santa Clara, Calif.) equipped with a ZORBA X SB-C18 column (Agitent) using a 6-min isocratic elution at 25% methanol in 0.1% phosphoric acid, followed by a 20-min linear gradient of 25-60% methanol at a flow rate of 1.0 ml/min. HPLA was detected using UV absorbance at 270 nm and quantified by a calibration curve generated from the authentic HPLA standard (Sigma-Aldrich). For HPLC-based detection of ADH activity (FIG. 3B), reactions were incubated for 45 min and terminated by addition of methanol to a final concentration of 66% (v/v). The product, Tyr, was derivatized with OPA and separated on a ZORBAX eclipse-XDB C18 column (Agilent) using a 30-min linear gradient of 20-45% methanol in 0.1% animonium acetate at a flow rate of 0.8 ml/min. Tyr was detected by UV absorption at 336 nm and quantified on the basis of a calibration curve generated by the authentic Tyr standard (Acros, Geel, Belgium).
The crude enzyme extracts were first subjected to PDH and ADH assays using saturating conditions to screen for any detectable PDH and/or ADH activity (FIG. 3B and FIG. 3C). ADH activity was detected from all five candidates. In contrast, PDH activity was detected only in Glyma11a35760 and Glyma18g02650 as well as their closest homolog from Medicago (Mt3g071980) but not in Glyma5g07870, Glyma17g13150 and Glyma14g05990 (FIG. 3C).

Data set [7] in a line: Substrate and electron acceptor preference of purified recombinant enzymes, ADH activity. It is filed as biochemical. The settings on record: with NADP+ or NAD+, compared with PDH activity. The procedure: (§3) To test the electron acceptor and substrate preference of purified recombinant enzymes (FIG. 12), we incubated reactions for 15 min with 1.5 mM substrate (L-arogenate or prephenate) and 1 mM cofactor (NAD^+ or NADP^+). Assays were conducted with decreasing enzyme concentrations and stopped by placing on ice, and the production of reduced cofactor, NAD(P)H, was Measured at 340 nm using a spectrophotometer (NanoDrop 2000, Thermo).

Data set [8] can be described thus: Kinetic analysis of purified recombinant enzymes, ADH activity. The data set is classed as biochemical. The conditions noted are these: substrate L-arogenate (ADH activity), 37° C., 0.5 mM NADP+, mean ± s.e.m. The protocol:
as §2

A short description of data set [9]: Inhibition analysis: effect of L-Phe on PDH activity of purified recombinant enzymes. It is filed as biochemical. The settings on record: purified recombinant enzyme. The procedure:
as §1

Data set [10] in a line: Substrate and electron acceptor preference of purified recombinant enzymes, PDH activity. It is filed as biochemical. The conditions noted are these: with NADP+ and to a lesser extent NAD+. The procedure: as §3
Setting [11] is: cofactor NADP+, read-out: apparent Km for prephenate.
Setting [12] is: substrate prephenate (PDH activity), 37° C., 0.5 mM NADP+, mean ± s.e.m.
Where [13] appears, read: substrate prephenate (PDH activity), 37° C., 0.5 mM NADP+, mean ± s.e.m., read-out: Km.

B1: M. tuberculosis PDH: microbial prephenate dehydrogenase from the literature (protein, UniProt O69721 1-323, looked up)
Prephenate dehydrogenase: MTRTVAAPPVCVLGLGLIGGSIMRAAAAAGREVFGYNRSVEGAHGARSDGFDAITDLNQTLTRAAATEALIVLAVPMPALPGMLAHIRKSAPGCPLTDVTSVKCAVLDEVTAAGLQARYVGGHPMTGTAHSGWTAGHGGLFNRAPWVVSVDDHVDPTVWSMVMTLALDCGAMVVPAKSDEHDAAAAAVSHLPHLLAEALAVTAAEVPLAFALAAGSFRDATRVAATAPDLVRAMCEANTGQLAPAADRIIDLLSRARDSLQSHGSIADLADAGHAARTRYDSFPRSDIVTVVIGADKWREQLAAAGRAGGVITSALPSLDSPQ
In the case of B1, the Michaelis-Menten constant (Km) in data set [1] is 410 µM.

B2: MtPDH1: Medicago truncatula prephenate dehydrogenase enzyme, recombinant, insensitive to L-Tyr (protein, listed as Medicago truncatula)
chain: MSSSSKSLKIGIVGFGTFGQFLANTMIKQGHTLTATSRTDYSQLCDQMGIHFFRDITAFLDADMDVILLCTSISSLSEVVGSMPLACLKRPTLFVDVLSVKEHPKNLLLKVLPEESDILCTHPMFGPVSGKNGWQNLTFMFDKVRIKDEVTCSKFLQIFASEGCKMVEMSCEEHDKAAAKSQFITHTIGRTLAEMDIKSTPIDTKGFQTLVELKKPVMGCSFDLYSGLFVYNRFARQELENLEHALHKVKEMLVQRIDEGQNPERTES
As to B2, the “effect of L-Tyr on PDH activity at low (non-saturating) prephenate concentrations” value in [2] is recorded as “did not affect; also recorded: no effect”. For the same molecule, the PDH activity in data set [2] (L-Tyr 0 mM) came out at 579 ± 28 nKat/mg; in data set [2] (L-Tyr 0.01 mM), 604 ± 22 nKat/mg; in [2] (L-Tyr 0.1 mM) it was 610 ± 7 nKat/mg; in [2] (L-Tyr 1.0 mM), 641 ± 19 nKat/mg; in data set [2] (L-Tyr 10 mM), 652 ± 56 nKat/mg. Further, the “inhibition of PDH activity by L-Tyr” value in data set [2] is “not inhibited”. In addition, the Michaelis constant (Km) came out at 223 µM in data set [3] (setting [11]), 223 ± 20 µM in data set [3] (setting [13]), 42500 ± 21800 µM in [8] and 43000 µM in data set [8] (listed as Mt3g071980). For the same molecule, the results for the Vmax in data set [3] (setting [12]) and in data set [8] were 655 ± 73 nKat mg^−1 and 229 ± 96 nKat mg^−1, respectively. Also, the kcat worked out at 21.8 ± 2.4 s⁻¹ in data set [3] (setting [12]); 22 s⁻¹ in data set [3] (substrate prephenate (PDH activity), 37° C., 0.5 mM NADP+, mean ± s.e.m., listed as Mt3g071980); 5.5 ± 3.2 s⁻¹ in [8]. Moreover, the “effect of HPP on PDH activity” value in [4] was “did not reduce; also recorded: None of the tested molecules significantly reduced PDH activity”. Further, in data set [5], the “effect of L-Trp on PDH activity” value is “did not reduce; also recorded: None of the tested molecules significantly reduced PDH activity”. The “PDH activity (qualitative detection)” value in [6] is “detected”. Moreover, the “ADH activity of purified recombinant enzyme” value in data set [7] is recorded as “much weaker ADH activity”. Further, the “effect of L-Phe on PDH activity” value in data set [9] is recorded as “did not reduce; also recorded: None of the tested molecules significantly reduced PDH activity”. The “PDH activity of purified recombinant enzyme” value in data set [10] was “strong PDH activity”.

B3: GmPDH1: soybean prephenate dehydrogenase enzyme, recombinant, insensitive to L-Tyr (protein)
chain: MSTSSSSQSLKIGIVGFGNFGQFLAKTMIKQGHTLTATSRSDYSELCLQMGIHFFRDVSAFLTADIDVIVLCTSILSLSEVVGSMPLTSLKRPTLFVDVLSVKEHPRELLLRELPEDSDILCTHPMFGPQTAKNGWTDHTFMYDKVRIRDEVICSNFIQIFATEGCKMVQMSCEEHDRAAAKSQFITHTIGRTLGEMDIQSTPIDTKGFETLVKLKETMMRNSFDLYSGLFVYNRFARQELENLEHALHKVKETLMIQRTNGEQGHKRTES
modifications: Glycine max
notes: soybean prephenate dehydrogenase enzyme, recombinant, insensitive to L-Tyr
Turning to B3, in data set [2], the “effect of L-Tyr on PDH activity at low (non-saturating) prephenate concentrations” value is on record as “did not affect; also recorded: no effect”. Moreover, the PDH activity in data set [2] (L-Tyr 0 mM) came to 1059 ± 69 nKat/mg; in data set [2] (L-Tyr 0.01 mM) it was 1064 ± 52 nKat/mg; in [2] (L-Tyr 0.1 mM), 1103 ± 55 nKat/mg; in data set [2] (L-Tyr 1.0 mM) it was 1065 ± 44 nKat/mg; in data set [2] (L-Tyr 10 mM), 1152 ± 101 nKat/mg. For the same molecule, in [2], the “inhibition of PDH activity by L-Tyr” value is “not inhibited”. The Km was found to be 127 µM in [3] (setting [11]), 127 ± 20 µM in data set [3] (setting [13]) and 17000 µM in data set [8]. For the same molecule, the Vmax in data set [3] (setting [12]) came to 800 ± 21 nKat mg^−1; in data set [8], 307 ± 56 nKat mg^−1. The kcat came out at 26.3 ± 0.7 s⁻¹ in data set [3] (setting [12]); 26 s⁻¹ in [3] (substrate prephenate (PDH activity), 37° C., 0.5 mM NADP+, mean ± s.e.m., listed as Glyma18g02650); 10.1 ± 1.8 s⁻¹ in data set [8]. Further, in data set [4], the “effect of HPP on PDH activity” value is “did not reduce; also recorded: None of the tested molecules significantly reduced PDH activity”. In addition, the “effect of L-Trp on PDH activity” value in data set [5] is on record as “did not reduce; also recorded: None of the tested molecules significantly reduced PDH activity”. Further, the “PDH activity (qualitative detection)” value in data set [6] is reported as “detected”. The “ADH activity of purified recombinant enzyme” value in data set [7] is recorded as “much weaker ADH activity”. Also, the “effect of L-Phe on PDH activity” value in data set [9] is recorded as “did not reduce; also recorded: None of the tested molecules significantly reduced PDH activity”. In data set [10], the “PDH activity of purified recombinant enzyme” value is listed as “strong PDH activity”.
